Results published in US20150299322A1 (Dana-Farber, published 2015).

Key:
[1] = target: T1, recombinant mRGMa-HIS (R&D) (mouse, UniProt Q6PCX7 48-427, limits assumed); test: ELISA, coated mRGMa-HIS
T1 construct: Bought from R&D; not shown: HIS tag
T1 sequence (looked up): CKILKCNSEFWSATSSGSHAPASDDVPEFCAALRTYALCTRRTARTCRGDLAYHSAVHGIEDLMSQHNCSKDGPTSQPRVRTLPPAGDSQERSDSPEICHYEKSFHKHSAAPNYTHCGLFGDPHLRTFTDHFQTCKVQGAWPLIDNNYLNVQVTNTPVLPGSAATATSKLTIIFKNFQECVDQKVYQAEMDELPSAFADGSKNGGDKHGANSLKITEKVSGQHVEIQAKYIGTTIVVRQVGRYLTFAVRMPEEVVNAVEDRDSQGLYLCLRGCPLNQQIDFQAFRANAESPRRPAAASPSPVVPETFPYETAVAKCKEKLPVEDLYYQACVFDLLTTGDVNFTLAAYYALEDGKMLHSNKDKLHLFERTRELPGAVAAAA
Experimental: (§1) To examine RGMa/RGMb/RGMc and PD-L2 interaction, 96-well ELISA plates were coated with 2 or 5 μg/ml of recombinant mRGMa-HIS, mRGMb-HIS, mRGMc-HIS, or hRGMb-HIS (R&D). Then, serial dilutions of mPD-L2-hIgG1/IgA, mPD-L2-mIgG2a/IgA, hPD-L2-mIgG2a or control-Ig fusion proteins were added and incubated for 1h at 37° C. Fab₂ goat anti-hIgG-HRP (Jackson ImmunoResearch Laboratories) or rat anti-mIgG2a-HRP (BD Biosciences) at 1:1000 or 1:10000 were used for detection.

[2] = target: T2, recombinant hRGMb-HIS (R&D) (human, UniProt Q6NW40 46-413); test: ELISA, coated hRGMb-HIS, PD-L2-Ig in solution
T2 construct: Bought from R&D; not shown: HIS tag
T2 sequence: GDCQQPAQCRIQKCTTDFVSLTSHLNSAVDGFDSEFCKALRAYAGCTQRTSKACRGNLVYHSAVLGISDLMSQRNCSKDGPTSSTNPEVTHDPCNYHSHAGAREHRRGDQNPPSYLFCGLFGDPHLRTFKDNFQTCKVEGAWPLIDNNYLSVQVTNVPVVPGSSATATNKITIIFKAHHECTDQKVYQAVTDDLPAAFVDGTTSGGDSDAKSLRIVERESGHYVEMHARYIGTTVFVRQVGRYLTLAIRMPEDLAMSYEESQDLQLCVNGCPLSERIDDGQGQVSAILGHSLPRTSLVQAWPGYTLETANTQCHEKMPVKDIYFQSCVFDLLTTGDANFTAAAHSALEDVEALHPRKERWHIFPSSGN
Experimental: as §1

[3] = target: T3, recombinant mRGMc-HIS (R&D) (mouse, UniProt Q7TQ32 33-393, limits assumed); test: ELISA, coated mRGMc-HIS
T3 construct: Bought from R&D; also called hemojuvelin; not shown: HIS tag
T3 sequence (looked up): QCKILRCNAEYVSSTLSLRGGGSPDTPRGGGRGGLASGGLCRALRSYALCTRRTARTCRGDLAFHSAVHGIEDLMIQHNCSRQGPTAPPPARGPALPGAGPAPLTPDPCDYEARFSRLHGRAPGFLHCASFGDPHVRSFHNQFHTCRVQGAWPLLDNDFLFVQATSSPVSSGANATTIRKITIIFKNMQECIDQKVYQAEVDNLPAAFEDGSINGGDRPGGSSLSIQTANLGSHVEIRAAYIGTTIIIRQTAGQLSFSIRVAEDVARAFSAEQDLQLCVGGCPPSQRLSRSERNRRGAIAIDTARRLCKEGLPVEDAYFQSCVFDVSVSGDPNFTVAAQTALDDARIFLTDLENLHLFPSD
Experimental: as §1

[4] = target: T4, recombinant mRGMb-HIS (R&D) (mouse, UniProt Q7TQ33 49-415, limits assumed); test: ELISA, coated BMP-2/4, mRGMb-HIS and PD-L2-Ig at 10 ug/ml, detection of the hIgG part
T4 construct: Bought from R&D; not shown: HIS tag
T4 sequence (looked up): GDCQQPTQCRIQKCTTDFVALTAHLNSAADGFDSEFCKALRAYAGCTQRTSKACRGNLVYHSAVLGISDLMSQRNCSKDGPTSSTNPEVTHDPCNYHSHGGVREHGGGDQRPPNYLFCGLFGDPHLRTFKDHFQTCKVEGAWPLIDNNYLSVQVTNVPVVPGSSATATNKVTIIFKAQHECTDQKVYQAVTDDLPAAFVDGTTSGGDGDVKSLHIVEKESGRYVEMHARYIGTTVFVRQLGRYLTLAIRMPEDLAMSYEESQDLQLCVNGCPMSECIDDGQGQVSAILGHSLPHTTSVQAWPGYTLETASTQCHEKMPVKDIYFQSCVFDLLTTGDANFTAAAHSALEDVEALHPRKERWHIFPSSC
Experimental: To determine if RGMb binds PD-L2 and BMP-2/4 simultaneously, 96-well ELISA plates were coated with BMP-2/4 as above. mPD-L2-hIgG1/IgA, mPD-L2-hIgG (R&D), mPD-L1-hIgG (R&D) or control-Ig fusion proteins at 10 μg/ml were preincubated with 10 μg/ml mRGMb-HIS (R&D) or buffer alone for 15 min. at room temperature (RT), then added to the plates and incubated for 1h at 37° C. Alternatively, 10 μg/ml mRGMb-HIS (R&D) or buffer alone was added first to the plates and incubated for 1h at 37° C. After wash, mPD-L2-Ig or control-Ig fusion proteins were added and incubated for 1h at 37° C. Fab₂ goat anti-hIgG-HRP (Jackson ImmunoResearch Laboratories) at 1:10000 was used for detection.
To test if RGMb can bind both PD-L2 and BMP at the same time, an ELISA was performed to analyze the binding capacity of PD-L2-Ig fusion protein to immobilized BMP-2/4 in the presence or absence of RGMb. PD-L2 could not directly bind to BMP-2/4, but in the presence of RGMb could form a complex with BMP when RGMb and PD-L2-Ig were added simultaneously (FIG. 4A-4B) or sequentially to BMP-2/4.

[5] = target: T5, mouse RGMb (mRGMb) expressed on transfected cells (mouse, UniProt Q7TQ33 49-415); test: flow cytometry on mRGMb transiently transfected COS cells
T5 construct: whole, on cells; Also used for mRGMb in cell lysates (Western blot); also called DRAGON; 300-mRGMb cells
T5 sequence (looked up): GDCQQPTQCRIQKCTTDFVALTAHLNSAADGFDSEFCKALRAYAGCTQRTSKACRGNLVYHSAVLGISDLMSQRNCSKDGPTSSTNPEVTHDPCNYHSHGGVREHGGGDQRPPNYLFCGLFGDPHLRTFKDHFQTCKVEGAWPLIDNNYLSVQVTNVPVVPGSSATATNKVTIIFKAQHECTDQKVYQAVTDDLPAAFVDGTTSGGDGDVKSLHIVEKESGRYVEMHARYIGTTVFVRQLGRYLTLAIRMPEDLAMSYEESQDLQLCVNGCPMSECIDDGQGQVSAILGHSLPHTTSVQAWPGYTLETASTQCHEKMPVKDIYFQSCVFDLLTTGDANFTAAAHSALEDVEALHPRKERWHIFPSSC
Experimental: A panel of murine activated lymphocyte cDNA expression libraries were transiently transfected into COS cells using DEAE-Dextran or Lipofectamine as facilitator (Freeman et al. (1989) J. Immunol. 143:2714-2722). After 44 hours, COS cells were harvested and panned on mPD-L2-mIgG2a/IgA coated petri plates. Episomal DNA was recovered and electroporated into E. coli DH10B/P3. Spheroplast fusion was used to reintroduce the plasmids into COS cells for subsequent rounds of expression and panning. Before the second and third rounds, COS cells expressing PD-1 were removed by incubating with PD-1 mAb followed by depletion with goat anti-rat IgG magnetic beads. After the third round of panning, individual plasmids were transfected into COS cells and binding of PD-L2-Ig to RGMb was verified by flow cytometry on mRGMb transiently transfected COS cells. At least four independent mRGMb cDNA clones were isolated.

B1: mPD-L2-Ig fusion protein (construct not told at the result) (Fc fusion, mouse, UniProt Q9WUL5 20-221, looked up)
chain: LFTVTAPKEVYTVDVGSSVSLECDFDRRECTELEGIRASLQKVENDTSLQSERATLLEEQLPLGKALFHIPSVQVRDSGQYRCLVICGAAWDYKYLTVKVKASYMRIDTRILEVPGTGEVQLTCQARGYPLAEVSWQNVSVPANTSHIRTPEGLYQVTSVLRLKPQPSRNFSCMFWNAHMKELTSAIIDPLSRMEPKVPRTW
notes: extracellular domain; not shown: Ig part: the methods name mPD-L2-hIgG1/IgA, mPD-L2-mIgG2a/IgA and mPD-L2-hIgG (R&D)
binding result [1]: no binding | binding result [2]: binds | binding result [3]: no binding | binding result [4]: binds | binding result [5]: binds
